From article PMC8635274 come the findings set out here.

Experiment [1] has as its target mCherry-FKBP-Ubc9 (UniProt P63279).
Experiment [2] shares this target. This is another data set of the same source.

In the case of “FKBP-EGFP-RanGAP* (from UniProt P46060 398-587)”, the KM of SUMOylation of RanGAP* by E2 (Ubc9), without scaffolds in experiment [1] turned out to be 150 µM. Turning to “FKBP-RanGAP (from UniProt P46060 398-587)”, the KM of SUMOylation of RanGAP by E2 (Ubc9), without scaffolds in experiment [2] was found to be 2.5 µM.
